The source of these data is article PMC7689096, “Cyclizing Painkillers: Development of Backbone-Cyclic TAPS Analogs” (Frontiers in Chemistry, 2020).

As usually defined, the Papp is a coefficient for how fast a substance crosses the barrier.

Several values for one entry are separate records, joined by “and”; a condition that tells them apart may be missing. Identical values can stand only once. Numbered stars: 1 amine (or outer) side, 2 acyl side, 3 side chain; on linkers, the order of the positions; unused ones are H or OH. Bridge positions count the residues as written; N and C are the ends. Square brackets hold non-standard residues; d marks the D form. Ends that are not written are not given here. N(6-aminohexyl)Gly = O=C(CN(CCCCCCN[*:3])[*:1])[*:2]; NGly(3-aminopropyl) = O=C(CN(CCCN[*:3])[*:1])[*:2]; N(2-Aminoethyl)Gly = O=C(CN(CCN[*:3])[*:1])[*:2]; CO = O=C([*:1])[*:2]; Nlys = NCCCCNCC(=O)O

Series [1] is described as follows: Caco-2 permeability assay. The conditions noted are these: human. (In general: Caco-2 monolayers are a common model of the intestinal barrier.)
In series [2] the test system is mice. The series can be described thus: Mouse open field test (locomotor adverse effect). The conditions noted are these: 5 mg/kg IP.
Description: In the mouse open field test (OF test), the distance and speed the animal moves over a 5-min time period is recorded, giving an indication as to whether a medication administered affected its locomotor activity. TAPS c(2-6) (5 or 15 mg/kg) was administered via IP administration and compared to morphine (5 mg/kg) and vehicle (PBS).
Male ICR mice (Harlan, Israel) 7 weeks of age (25–27) were used for all pharmacodynamic experiments after 5-day acclimation to laboratory conditions. Animals were allowed free access to food (standard commercial, sterile rodent diet) and water throughout the experiments and kept in automatically controlled environmental conditions for temperature and humidity levels in a 12-h dark-light cycle.
Animals were placed in the OF apparatus for a period of 5 min. The apparatus utilizes computerized monitoring which measures the speed and distance the animal walks during the measurement period. […] Baseline measurements were taken 1 day before initiation of the experiments and again at 0.5, 1.5, 3, and 5 h post injection.
Series [3] concerns the target T1, δ (DOP, OPRD2) opioid receptor (Mus musculus, UniProt P32300).
T1 construct: NG-10815 cells which express significant endogenous levels of δ opioid receptors; host or cells: NG-10815 (NG108-15) mouse N18TG2 neuroblastoma x rat C6-BU-1 glioma hybrid cells
The series can be described thus: DOP opioid receptor functional antagonism in NG-10815 cells. The format is cell-based, rat. To be noted: Between 10^−9-10^−6 M, percent inhibition of control specific agonist response. The protocol: (§1) Peptides were tested for μ (MOP, OPRM1) and δ (DOP, OPRD2) opioid receptor activation functional agonism and antagonism using CHO cells expressing human recombinant μ receptors and NG-10815 cells which express significant endogenous levels of δ opioid receptors. The cultures were incubated for 10 min at 37°C followed by impedance measurements of CHO cells and cAMP was assayed by the HTRF method using NG-10815 cells, according to CEREP standard assay protocols. The respective reference, non-peptide small molecules were tested concurrently with the TAPS analogs. The agonist compounds were: DPDPE (selective agonist of DOP receptor) and DAMGO (high MOP receptor specificity) and the antagonist compounds were: Naltrindole (selective DOP receptor antagonist) and CTOP (MOP receptor antagonist). […] The results are expressed as a percentage of respective control-specific response. […] These findings indicate that TAPS cyclic peptides are MOP selective full agonists. […] The cyclic TAPS peptide had lower activity than the linear parent TAPS peptide (90 ± 5%) – a finding that can be attributed to their restricted conformation relative to the flexible linear peptide conformation.
(§2) The respective reference, non-peptide small molecules were tested concurrently with the TAPS analogs; Agonist compounds DPDPE ([D-Pen2,D-Pen5]enkephalin), selective agonist of DOP receptor at 2 × 10^−9 M and DAMGO ([D-Ala2, N-MePhe4, Gly-ol] enkephalin), high MOP specificity at 2.5 × 10^−9 M; Antagonist compounds: naltrindole 7-(cyclopropylmethyl)-6,7-dehydro-4,5α-epoxy-3,14-dihydroxy-6,7-2′,3′-indolomorphinan hydrochloride, selective DOP antagonist, 5 × 10^−10 M and CTOP (D-Phe-Cys-Tyr-D-Trp-Orn-Thr-Pen-Thr-NH2), MOP antagonist at 3.4 × 10^−7 M. Depending on the assay volume and solvent tolerance, the stock solutions were diluted to [100×], [333×] or [1,000×] in 100% DMEM solvent, then either added directly or further diluted to [10×] or [5×] in H2O or Hank's balanced salt solution (HBSS) before addition to the assay well (final solvent concentration kept constant). The cultures were incubated for 10 min at 37°C followed by impedance measurements using cellular dielectric spectroscopy of CHO cells and cAMP was assayed by homogeneous time resolved fluorescence (HTRF) method using NG-10815 cells, according to CEREP standard assay protocols (https://euroscreenfast.com/assays/opioid-orl1-camp-fast-0360c; https://euroscreenfast.com/assays/opioid-op1-delta-camp-fast-0379c). The results (mean of three experiments) are expressed as a percent of control specific agonist response [(measured TAPS specific response/control specific agonist response) × 100] and as a percent inhibition of control specific agonist response [100 – (measured TAPS specific response/control specific agonist response) × 100] obtained in the presence of the TAPS compounds. Results showing a stimulation or an inhibition lower than 25% were considered not significant and mostly attributable to variability of the signal around the control level. Results showing a stimulation or an inhibition higher than 50% were considered to represent significant effects of the TAPS compounds.

Series [4] addresses T2, human recombinant μ (MOP, OPRM1) receptor (Homo sapiens, UniProt P35372).
T2 construct: host or cells: CHO cells
The series can be described thus: MOP opioid receptor functional agonism in CHO cells expressing human recombinant μ receptors. The format is cell-based. To be noted: At 10^−6 M, percent of control specific agonist response, values lower than 25% not significant. The method, then: as §1
Evaluation of the Agonist Activity of Compounds at the Human μ Receptor in Transfected CHO Cells, Determined by Measuring Their Effects on cAMP modulation Using the HTRF Detection Method
Thereafter, the adenylyl cyclase activator NKH 477 is added at a final concentration of […]. Following 10 min incubation at 37°C, the cells are lysed and the fluorescence acceptor (D2-labeled cAMP) and fluorescence donor (anti-cAMP antibody labeled with europium cryptate) are added. After 60 min at room temperature, the fluorescence transfer is measured at lex = 337 nm and lem = 620 and 665 nm using a microplate reader (Rubystar, BMG). The cAMP concentration is determined by dividing the signal measured at 665 nm by that measured at 620 nm (ratio). The results are expressed as a percent of the control response to 1 μM DAMGO. The standard reference agonist is DAMGO, which is tested in each experiment at several concentrations to generate a concentration-response curve from which its EC50 value is calculated.
as §2, with “Results showing a stimulation or an inhibition lower than 25% were considered not significant and mostly attributable to variability of the signal around the control level. Results showing a stimulation or an inhibition higher than 50% were considered to represent significant effects of the TAPS compounds.” left out

In series [5] the target is T2, human recombinant μ (MOP, OPRM1) receptor. The series can be described thus: MOP opioid receptor functional antagonism in CHO cells expressing human recombinant μ receptors. The format is cell-based. The conditions noted are these: Between 10^−9-10^−6 M, percent inhibition of control specific agonist response, values lower than 25% not significant. The method, then:
as §1, §2

Series [6] concerns the target T1, δ (DOP, OPRD2) opioid receptor. The series can be described thus: DOP opioid receptor functional agonism in NG-10815 cells. To be noted: At 10^−6 M, percent of control specific agonist response. The class given is cell-based, rat. The method, then: as §1
Evaluation of the Agonist Activity of Compounds at the Rat delta2 Receptor Endogenously Expressed in NG-10815 Cells, Determined by Measuring Their Effects on Impedance Modulation Using the CellKey (CDS) Detection Method
Cells are seeded onto 96-well plate coated with fibronectin at 2 × 10^5 cells/well in HBSS buffer (Invitrogen) + 20 mM HEPES (Invitrogen) with 0.1% BSA and allowed to equilibrate for 60 min at 37°C before the start of the experiment. Plates are placed onto the system and measurements are made at a temperature of 37°C. […] Impedance measurements are monitored for 10 min after ligand addition. The standard reference agonist is DPDPE, which is tested in each experiment at several concentrations to generate a concentration-response curve from which its EC50 value is calculated.
as §2, with “The results (mean of three experiments) are expressed as a percent of control specific agonist response [(measured TAPS specific response/control specific agonist response) × 100] and as a percent inhibition of control specific agonist response [100 – (measured TAPS specific response/control specific agonist response) × 100] obtained in the presence of the TAPS compounds. Results showing a stimulation or an inhibition lower than 25% were considered not significant and mostly attributable to variability of the signal around the control level. Results showing a stimulation or an inhibition higher than 50% were considered to represent significant effects of the TAPS compounds.” left out

T2 sequence (P35372 whole entry): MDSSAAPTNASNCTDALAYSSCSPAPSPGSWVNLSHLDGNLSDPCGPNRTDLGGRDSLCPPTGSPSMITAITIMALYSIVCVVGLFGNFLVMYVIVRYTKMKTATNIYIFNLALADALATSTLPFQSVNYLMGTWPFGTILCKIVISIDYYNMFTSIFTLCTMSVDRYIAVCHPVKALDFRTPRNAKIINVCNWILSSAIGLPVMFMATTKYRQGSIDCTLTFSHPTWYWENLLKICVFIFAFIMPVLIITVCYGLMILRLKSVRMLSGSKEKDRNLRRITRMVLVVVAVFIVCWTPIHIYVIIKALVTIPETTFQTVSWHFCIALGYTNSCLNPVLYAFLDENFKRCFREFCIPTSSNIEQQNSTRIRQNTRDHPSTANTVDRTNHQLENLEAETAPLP
T1 sequence (P32300 whole entry): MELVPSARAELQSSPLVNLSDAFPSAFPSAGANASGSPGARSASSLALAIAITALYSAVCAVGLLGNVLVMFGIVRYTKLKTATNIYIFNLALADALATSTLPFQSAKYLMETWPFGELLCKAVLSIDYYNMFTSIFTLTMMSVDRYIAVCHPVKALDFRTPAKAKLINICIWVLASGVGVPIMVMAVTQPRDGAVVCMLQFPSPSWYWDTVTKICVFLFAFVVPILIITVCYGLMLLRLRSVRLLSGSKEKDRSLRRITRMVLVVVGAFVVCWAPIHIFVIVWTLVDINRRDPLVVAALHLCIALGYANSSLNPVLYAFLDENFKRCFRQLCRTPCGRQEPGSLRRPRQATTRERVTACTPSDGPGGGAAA

For the compound `COCCc1ccc(OCC(O)CNC(C)C)cc1` (stereo not shown) [metoprolol, reference compound], the Papp at 150 min in series [1] came out at 13 ×10⁻⁶ cm/s.

As for `CN1CC[C@]23c4c5ccc(O)c4O[C@H]2[C@@H](O)C=C[C@H]3[C@H]1C5` [morphine, reference compound], in series [2], the “locomotor effect (distance and speed of movement over 5 min)” value is “excitatory effect”.

On to “TAPS c(2-3): backbone-cyclic TAPS analog, urea bridge; n-m alkyl chain lengths on nitrogens of Gly and Arg; ring size 15 (YRF[N(2-Aminoethyl)Gly]-NH2; bridge 2-4 via CO; not fully specified (residue 2); also: urea bridge between the two N-alkyl chains)”, for which, in series [3], the “DOP antagonist (%)” value is 2%. Also, the “MOP agonist (%)” value in series [4] came out at 24%. For the same compound, the “MOP antagonist (%)” value in series [5] amounted to 1%.

In the case of “TAPS c(3-3): backbone-cyclic TAPS analog, urea bridge; ring size 16 (YRF[NGly(3-aminopropyl)]-NH2; bridge 2-4 via CO; not fully specified (residue 2); also: urea bridge between the two N-alkyl chains)”, the “DOP agonist (%)” value in series [6] is given as 14%. The “DOP antagonist (%)” value in series [3] is recorded as 11%. In series [4], the “MOP agonist (%)” value worked out at 1%. For the same compound, the “MOP antagonist (%)” value in series [5] came to 2%.

For “TAPS c(3-6): backbone-cyclic TAPS analog, urea bridge; ring size 19 (YRF[NGly(3-aminopropyl)]-NH2; bridge 2-4 via CO; not fully specified (residue 2); also: urea bridge between the two N-alkyl chains)”, the “DOP antagonist (%)” value in series [3] was 1%. Further, the “MOP agonist (%)” value in series [4] turned out to be 1%. Also, the “MOP antagonist (%)” value in series [5] came to 2%.

With “TAPS c(4-3): backbone-cyclic TAPS analog, urea bridge; ring size 17 (YRF[Nlys]-NH2; bridge 2-4 via CO; not fully specified (residue 2); also: urea bridge between the two N-alkyl chains)”, the “DOP agonist (%)” value in series [6] came to 11%. Further, the “DOP antagonist (%)” value in series [3] is recorded as 0%. The “MOP agonist (%)” value in series [4] was 63 ± 5% and 63^** %.

As for “TAPS c(4-6): backbone-cyclic TAPS analog, urea bridge; ring size 20 (YRF[Nlys]-NH2; bridge 2-4 via CO; not fully specified (residue 2); also: urea bridge between the two N-alkyl chains)”, the “DOP antagonist (%)” value in series [3] came to 3%. In addition, the “MOP agonist (%)” value in series [4] was determined as 1%. Besides, the “MOP antagonist (%)” value in series [5] was 1%.

As to “TAPS c(6-3): backbone-cyclic TAPS analog, urea bridge; ring size 19 (YRF[N(6-aminohexyl)Gly]-NH2; bridge 2-4 via CO; not fully specified (residue 2); also: urea bridge between the two N-alkyl chains)”, in series [6], the “DOP agonist (%)” value is 19%. Besides, in series [3], the “DOP antagonist (%)” value is on record as 8%. Also, the “MOP agonist (%)” value in series [4] was 75 ± 9% and 75^** %.

On to “TAPS c(6-6): backbone-cyclic TAPS analog, urea bridge; ring size 22 (YRF[N(6-aminohexyl)Gly]-NH2; bridge 2-4 via CO; not fully specified (residue 2); also: urea bridge between the two N-alkyl chains)”, for which the “DOP agonist (%)” value in series [6] came to 1%. For the same compound, in series [3], the “DOP antagonist (%)” value was determined as 6%. Also, the “MOP agonist (%)” value in series [4] came to 21%. Moreover, in series [5], the “MOP antagonist (%)” value stood at 3%.
